Earlier results as cited in article PMC2990782 (Gene therapy, 2010).

Details: i.v. dosed polyplex; ref [22]

PEG-Cys-Trp-Lys18
time to complete metabolism of plasmid DNA in the circulation: ≤ 3 min
